This data set has as its system Saccharomyces cerevisiae. Briefly: protein stability index of tFT-peptide fusion (C-terminal peptide) (PSI (0-1 scale)); higher = more stable (slower turnover). Conditions: temperature: 30 C. The protocol:
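MPS profiling in S. cerevisiae of the yeast C-terminome library: the last 12 aa of each annotated ORF are fused to the C-terminus of a sfGFP-mCherry timer, after a GGGS linker. Cells are FACS-sorted into 8 mCherry/sfGFP bins and deep-sequenced. PSI runs from 0 (unstable) to 1 (stable); wild type and das1Δ backgrounds, two technical replicates each.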

Setting [1] is: genetic background: das1 deletion.

± gives the standard deviation of the averaged measurements.

Among the data in the supplement of paper PMC10724198 are protein stability index values, retold here.

As to VFEVFSRMDMLL [VPS74 C-terminal 12 aa], the protein stability index runs as follows: under setting [1], 0.7149 ± 0.0058; (genetic background: wild type) 0.773 ± 0.027.
For VFGGCATTWIVL [ATS1 C-terminal 12 aa] the same measures were 0.6971 ± 0.0038 and 0.692 ± 0.0096.
For VFLELKKAQRWA [API2 C-terminal 12 aa] the same measures were 0.703 ± 0.019 and 0.686 ± 0.011.
The matching figures for VFNDIFRLNYSA [NTF2 C-terminal 12 aa]: 0.7108 ± 0.0032 and 0.504 ± 0.0084.
Consider VFPETDSIFEPV [RAF1 C-terminal 12 aa], for which the protein stability index came to 0.733 ± 0.022 under setting [1] and 0.715 ± 0.0081 (genetic background: wild type).
For VGKKLETFKKTN [WBP1 C-terminal 12 aa], the protein stability index runs as follows: under setting [1], 0.717 ± 0.0088; (genetic background: wild type) 0.48 ± 0.019.
In the case of “VGRHSSRLMCPG [YBR126W-B C-terminal 12 aa]”, the protein stability index reads like this: under setting [1], 0.6932 ± 0.0053; (genetic background: wild type) 0.689 ± 0.022.
For VHAENTTLREIL [CDC50 C-terminal 12 aa] the same measures were 0.706 ± 0.036 and 0.7076 ± 0.0047.
Consider VHLEKKKDEDKK [UBX7 C-terminal 12 aa], for which the protein stability index was 0.67376 ± 4e-05 under setting [1] and 0.668 ± 0.021 (genetic background: wild type).
The matching figures for VIIVPIAVHFSR [SNC1 C-terminal 12 aa]: 0.561 ± 0.024 and 0.581 ± 0.0095.
For VILSETVVILYY [YKR032W C-terminal 12 aa] the same measures were 0.346 ± 0.014 and 0.345 ± 0.0067.
Take VKFGLQMAYLQS [YMR007W C-terminal 12 aa]: the protein stability index stood at 0.7023 ± 0.005 under setting [1] and 0.6586 ± 0.0059 (genetic background: wild type).
For VLGDVIKIAQRL [HOM6 C-terminal 12 aa] the same measures were 0.728 ± 0.008 and 0.747 ± 0.031.
For VLSNNVPYTQPR [RCH1 C-terminal 12 aa] the same measures were 0.703 ± 0.029 and 0.745 ± 0.054.
VLYIILYYIILY [YGL024W C-terminal 12 aa] yielded a protein stability index under setting [1] of 0.282 ± 0.02 and a protein stability index (genetic background: wild type) of 0.181 ± 0.035.
The matching figures for VMQELRKLKNAM [GLO4 C-terminal 12 aa]: 0.709 ± 0.018 and 0.64 ± 0.025.
As to VMSLYNLACKYI [SAM37 C-terminal 12 aa], the protein stability index turned out to be 0.797 ± 0.013 under setting [1] and 0.577 ± 0.056 (genetic background: wild type).
For VNELVELMTQSA [SEC18 C-terminal 12 aa] the same measures were 0.675 ± 0.015 and 0.695 ± 0.014.
The matching figures for VNERSHDVKFTK [YIL165C C-terminal 12 aa]: 0.686 ± 0.006 and 0.689 ± 0.01.
On to VNHSFEFNDVLQ [IFH1 C-terminal 12 aa], for which the protein stability index by setting is: under setting [1], 0.686 ± 0.014; (genetic background: wild type) 0.738 ± 0.025.
The matching figures for VPGGKKTPTEAL [LSM5 C-terminal 12 aa]: 0.6817 ± 0.0014 and 0.707 ± 0.026.
For VPQLHSFIAKEQ [RMD9 C-terminal 12 aa] the same measures were 0.699 ± 0.017 and 0.3 ± 0.0037.
For VPSLLILSVFFS [YPS3 C-terminal 12 aa] the same measures were 0.27 ± 0.03 and 0.273 ± 0.012.
As for VQEWEVLGRVDV [CPD1 C-terminal 12 aa], the protein stability index runs as follows: under setting [1], 0.724 ± 0.014; (genetic background: wild type) 0.692 ± 0.022.
The matching figures for VQQMVEMQGKMR [SGM1 C-terminal 12 aa]: 0.71134 ± 0.00034 and 0.68508 ± 0.00063.
Take VSDSSYDEYSNE [SYT1 C-terminal 12 aa]: the protein stability index came to 0.679 ± 0.021 under setting [1] and 0.672 ± 0.03 (genetic background: wild type).
The matching figures for VSKTYEEHIETV [JEN1 C-terminal 12 aa]: 0.688 ± 0.023 and 0.692 ± 0.013.
With VSNASNGCVLDA [ILV3 C-terminal 12 aa], the protein stability index was 0.70459 ± 3.7e-05 under setting [1] and 0.707 ± 0.013 (genetic background: wild type).
The matching figures for VTSGKAHFVLYN [SIM1 C-terminal 12 aa]: 0.695 ± 0.017 and 0.655 ± 0.017.
For VVERTRQAHFAI [YEF1 C-terminal 12 aa] the same measures were 0.676 ± 0.023 and 0.6752 ± 0.0036.
The matching figures for VVTYTLKVDLKV [YLR152C C-terminal 12 aa]: 0.469 ± 0.025 and 0.491 ± 0.012.
On to VVVVVPAVVKTR [SSO1 C-terminal 12 aa], for which the protein stability index under setting [1] worked out at 0.503 ± 0.011 and the protein stability index (genetic background: wild type) turned out to be 0.5221 ± 0.0046.
Take VVYYQMRCKKMT [BUD26 C-terminal 12 aa]: the protein stability index worked out at 0.678 ± 0.032 under setting [1] and 0.4177 ± 0.0039 (genetic background: wild type).
Regarding VYVENPIRLFHH [ADE16 C-terminal 12 aa], the protein stability index is, setting by setting: under setting [1], 0.712 ± 0.0083; (genetic background: wild type) 0.7235 ± 0.0019.
Consider WAVICFCSGIHK [YMR027W C-terminal 12 aa], for which the protein stability index is, setting by setting: under setting [1], 0.5858 ± 0.0021; (genetic background: wild type) 0.546 ± 0.013.
The matching figures for WDFKKQGFASRD [PDA1 C-terminal 12 aa]: 0.696 ± 0.01 and 0.6926 ± 0.003.
On to WERTMRDLKLIH [ALG1 C-terminal 12 aa], for which the protein stability index under setting [1] came out at 0.742 ± 0.027 and the protein stability index (genetic background: wild type) was 0.64 ± 0.033.
In the case of WEVVTGIRKLLI [PEX12 C-terminal 12 aa], the protein stability index under setting [1] stood at 0.68 ± 0.008 and the protein stability index (genetic background: wild type) was determined as 0.401 ± 0.014.
For “WFSCSLIFRNSW [YJR140W-A C-terminal 12 aa]” the same measures were 0.6314 ± 0.0035 and 0.618 ± 0.053.
The matching figures for WSNNDDMEQNPW [YPR089W C-terminal 12 aa]: 0.7236 ± 0.0055 and 0.713 ± 0.029.
Regarding WTTEPYLQRIIW [DIE2 C-terminal 12 aa], the protein stability index reads like this: under setting [1], 0.753 ± 0.0089; (genetic background: wild type) 0.718 ± 0.016.
The matching figures for WYEDEDSGDDDM [DML1 C-terminal 12 aa]: 0.698 ± 0.012 and 0.674 ± 0.014.
The matching figures for YAPDVVRSLENL [RRP42 C-terminal 12 aa]: 0.7271 ± 0.0014 and 0.695 ± 0.043.
On to YAVKDKIETLLI [SNU13 C-terminal 12 aa], for which the protein stability index came out at 0.7019 ± 0.0055 under setting [1] and 0.725 ± 0.12 (genetic background: wild type).
The matching figures for YAYMLYYERVNK [UBP16 C-terminal 12 aa]: 0.675 ± 0.02 and 0.675 ± 0.041.
The matching figures for YDANSWKQIKSC [PCL5 C-terminal 12 aa]: 0.7002 ± 0.0065 and 0.203 ± 0.016.
For YDRDAKNDRSTT [YHL017W C-terminal 12 aa] the same measures were 0.705 ± 0.023 and 0.665 ± 0.061.
Consider YEEFALRSGSSS [AFG2 C-terminal 12 aa], for which the protein stability index amounted to 0.715 ± 0.022 under setting [1] and 0.676 ± 0.014 (genetic background: wild type).
For YEGPTLTEFEDA [CYB2 C-terminal 12 aa] the same measures were 0.6905 ± 0.0043 and 0.703 ± 0.015.
The matching figures for “YFFSSDRAIFNA [YGL041C-B C-terminal 12 aa]”: 0.731 ± 0.022 and 0.7029 ± 0.0011.
The matching figures for YFNKTEFLLADN [MRPL17 C-terminal 12 aa]: 0.713 ± 0.018 and 0.677 ± 0.025.
In the case of YIFQTYVSVDSK [YAR047C C-terminal 12 aa], the protein stability index runs as follows: under setting [1], 0.62 ± 0.036; (genetic background: wild type) 0.58 ± 0.015.
The matching figures for YILQKQIIEDVE [SFH5 C-terminal 12 aa]: 0.693 ± 0.0056 and 0.65 ± 0.043.
For YINDISRTWNAN [MNT3 C-terminal 12 aa] the same measures were 0.68 ± 0.0086 and 0.679 ± 0.043.
The matching figures for YIWKYYADSLFE [CSM2 C-terminal 12 aa]: 0.736 ± 0.013 and 0.685 ± 0.043.
For YKDVQDAIRDSL [URA6 C-terminal 12 aa], the protein stability index came out at 0.708 ± 0.012 under setting [1] and 0.6855 ± 0.0037 (genetic background: wild type).
The matching figures for YKELVKNIESKL [CIT2 C-terminal 12 aa]: 0.752 ± 0.024 and 0.837 ± 0.015.
The matching figures for YKERDLIDRSAY [VTS1 C-terminal 12 aa]: 0.681 ± 0.014 and 0.706 ± 0.032.
The matching figures for YKKAATLISNIL [DNM1 C-terminal 12 aa]: 0.71 ± 0.017 and 0.72 ± 0.074.
With YKQREYYTGVAW [ERG28 C-terminal 12 aa], the protein stability index runs as follows: under setting [1], 0.70264 ± 0.0005; (genetic background: wild type) 0.694 ± 0.02.
The matching figures for YLAFRLREFNKL [RSC1 C-terminal 12 aa]: 0.787 ± 0.05 and 0.726 ± 0.049.
For YLKEYEFSQKDF [PFS1 C-terminal 12 aa] the same measures were 0.725 ± 0.01 and 0.734 ± 0.025.
For YLRFKENPEEKW [AIM29 C-terminal 12 aa] the same measures were 0.711 ± 0.011 and 0.753 ± 0.086.
As to YNSGTEGTRFQI [TAR1 C-terminal 12 aa], the protein stability index under setting [1] is 0.707 ± 0.018 and the protein stability index (genetic background: wild type) was 0.6849 ± 0.0015.
For YQVSIAKVPRLT [BUD5 C-terminal 12 aa] the same measures were 0.711 ± 0.0095 and 0.4878 ± 0.0037.
For YRCEKISQVLVI [CTF13 C-terminal 12 aa] the same measures were 0.461 ± 0.036 and 0.495 ± 0.047.
On to “YRNIPESKPQGS [YIR021W-A C-terminal 12 aa]”, for which the protein stability index under setting [1] was 0.6812 ± 0.0038 and the protein stability index (genetic background: wild type) worked out at 0.6624 ± 0.0038.
